Target: T1, EhCFIm25 wild type (Entamoeba histolytica, UniProt C4M2T1 1-255)
T1 sequence: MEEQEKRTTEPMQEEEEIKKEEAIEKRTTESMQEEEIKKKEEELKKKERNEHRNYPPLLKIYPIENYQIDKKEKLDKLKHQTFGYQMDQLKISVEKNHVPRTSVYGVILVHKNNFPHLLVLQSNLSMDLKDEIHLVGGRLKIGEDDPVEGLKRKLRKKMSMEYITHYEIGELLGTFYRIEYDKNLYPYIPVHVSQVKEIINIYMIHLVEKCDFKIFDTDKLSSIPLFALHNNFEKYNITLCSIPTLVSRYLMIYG
Test: EMSA; REMSA: RNA probe (100 ng/ul) with 20 ug EhCFIm25 or 50 ug extract, room temperature 20 min, 10% non-denaturing PAGE, LightShift Chemiluminescent RNA EMSA Kit; buffer, salt and pH not stated
Conditions: protein: recombinant, tags: 6xHis (pRSET vector), chain copies: 2

B1: Ehthio-3'UTR (ssRNA)
RNA: AAGGGUAGGAAAAAUUGAAACAUUAAAAGAUUUUCCUUCUUUUAAAGACAGAGUAAAAGAACCAUAUGUUGCUCCAAAAUAUGAAGAAGAAGAACUUUAAAUAAUAACUUUUUCAAGAACAAAAAUUAAUAACAAAUUUAUUUUAUUUGAUUUUACAAUUCUUGUUAUUAUAUGUUGAUAUUUAUUUAAAAUACUCUUUCUUUUAAUUUUUGUUUUUAUUAACAAUAUAUUUUAUAUUAAAUAAAGUUUAAUGAAAAAAAAGUAUUAAAAAGUUGUAAUAAACCUAAUUAAUAAAUGUUU
binding result (label: biotin (Biotin RNA Labeling Mix)): binds

B2: GUUG-probe (ssRNA)
RNA: AAUAAUACGACUCACUAUAGACGAAAUGGUUGUCAACGACGAUUA
binding result (label: biotin as probe): binds

B3: CAAC-probe (ssRNA)
RNA: AAUAAUACGACUCACUAUAGACGAAAUGCAACUCAACGACGAUUA
binding result (label: biotin): no binding

From article PMC5890266, “Targeting the polyadenylation factor EhCFIm25 with RNA aptamers controls survival in Entamoeba histolytica”
